From patent US20140221282A1 (AstraZeneca / MedImmune, published 2014)
Ends that are not written are not given here. Y‑shaped‑mPEG40KD = Y-shaped methoxy-PEG of 40 kDa attached to the Lys side chain; mPEG40KD = methoxy-PEG of 40 kDa

T1: human amylin receptor 3 (human, UniProt P30988 25-474; O60896 24-148)
T1 construct: whole, on cells; also called AMY3; Human AMY3
T1 sequence (looked up) 1: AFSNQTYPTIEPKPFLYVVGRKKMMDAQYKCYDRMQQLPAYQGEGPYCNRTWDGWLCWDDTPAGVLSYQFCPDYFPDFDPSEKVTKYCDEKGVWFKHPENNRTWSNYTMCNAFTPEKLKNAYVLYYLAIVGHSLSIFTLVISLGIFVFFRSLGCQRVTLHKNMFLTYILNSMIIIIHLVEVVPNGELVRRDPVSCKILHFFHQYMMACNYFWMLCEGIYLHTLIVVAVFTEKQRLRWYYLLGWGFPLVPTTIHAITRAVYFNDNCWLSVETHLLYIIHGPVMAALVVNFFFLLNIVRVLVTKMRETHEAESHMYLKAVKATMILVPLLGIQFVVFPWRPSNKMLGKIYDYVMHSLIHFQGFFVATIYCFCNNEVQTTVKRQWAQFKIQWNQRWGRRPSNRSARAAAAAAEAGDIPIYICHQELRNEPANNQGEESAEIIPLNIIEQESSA
T1 sequence (looked up) 2: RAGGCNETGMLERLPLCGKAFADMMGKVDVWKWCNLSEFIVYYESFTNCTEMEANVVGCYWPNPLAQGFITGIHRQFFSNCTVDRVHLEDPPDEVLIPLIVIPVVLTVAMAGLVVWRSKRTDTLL

T2: amylin receptor of rat nucleus accumbens membranes (rat)
T2 chain 1: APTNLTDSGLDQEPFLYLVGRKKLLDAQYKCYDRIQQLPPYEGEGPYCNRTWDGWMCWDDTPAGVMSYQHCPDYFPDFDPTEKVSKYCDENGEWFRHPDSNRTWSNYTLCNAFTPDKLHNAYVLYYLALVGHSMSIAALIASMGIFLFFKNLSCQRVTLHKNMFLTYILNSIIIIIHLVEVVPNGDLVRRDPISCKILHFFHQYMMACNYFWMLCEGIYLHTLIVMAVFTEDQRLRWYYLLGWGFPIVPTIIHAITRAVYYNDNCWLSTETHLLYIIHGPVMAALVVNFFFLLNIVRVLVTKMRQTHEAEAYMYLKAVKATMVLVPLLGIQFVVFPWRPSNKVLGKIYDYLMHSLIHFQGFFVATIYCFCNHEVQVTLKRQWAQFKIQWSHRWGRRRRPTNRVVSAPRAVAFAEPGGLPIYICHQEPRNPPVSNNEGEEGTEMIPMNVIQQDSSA
T2 chain 2: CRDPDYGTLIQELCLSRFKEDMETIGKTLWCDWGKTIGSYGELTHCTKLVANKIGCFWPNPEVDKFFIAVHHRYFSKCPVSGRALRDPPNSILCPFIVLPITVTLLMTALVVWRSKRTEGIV


Tests used:
human amylin receptor 3 [1] = molecular target: T1, human amylin receptor 3; assay: competition with 125I-rat amylin, human AMY3 receptor
human amylin receptor 3 [2] = molecular target: T1, human amylin receptor 3; assay: cell-based or functional assay
[3] = molecular target: T3, amylin receptor of rat nucleus accumbens membranes (rat); assay: competition with 125I-rat amylin, rat nucleus accumbens membranes
T3 construct: whole, on cells; native tissue membranes; also called RNA membranes

[4] = molecular target: T2, amylin receptor of rat nucleus …; assay: as above

Binder | IC50 (human amylin receptor 3 [1]) [nM] | Functional EC50, Human AMY3 (human amylin receptor 3 [2]) [nM] | IC50 [3] [nM] | IC50 [4] [nM]
CNTATCATQRLANFLVHSSNNFGPK(mPEG40KD)LPPTNVGSNTY-NH2 (ends and bridges not checked, also called Cmpd 77) [[K^26(mPEG40KD)]-Cmpd 60] | 60 | 0.078 | 39 | 
CNTATCATQRLANFLVHSK(mPEG 40 kDa)NNFGPILPPTNVGSNTY-NH2 (ends and bridges not checked, also called Cmpd 91) [[K^20(mPEG40KD)]-Cmpd 58] | 918 | 5.51 |  | 
CNTATCATQRLANFLVHSSNNK(mPEG 40 kDa)GPILPPTNVGSNTY-NH2 (ends and bridges not checked, also called Cmpd 86) [[K^23(mPEG40KD)]-Cmpd 58] | 240 | 2.82 |  | 611
CNTATCATQRLANFLVHSSNNFGPILPPTNVK(mPEG40KD)SNTY-NH2 (ends and bridges not checked, also called Cmpd 93) [[K^33(mPEG40KD)]-Cmpd 58] | 860 | 1.69 |  | 
CNTATCATQRLANFLVHSSK(mPEG 40 kDa)NFGPILPPTNVGSNTY-NH2 (ends and bridges not checked, also called Cmpd 76) [[K^21(mPEG40KD)]-Cmpd 59] | 388 | 1.75 |  | 131
CNTATCATQRLANFLVHSSNNFK(mPEG40KD)PILPPTNVGSNTY-NH2 (ends and bridges not checked, also called Cmpd 80) [[K^24(mPEG40KD)]-Cmpd 62] | 111 | 0.41 |  | 79
CNTATCATQRLANFLVHSSNNFGPILPPTNVGK(mPEG40KD)NTY-NH2 (ends and bridges not checked, also called Cmpd 94) [[K^34(mPEG40KD)]-Cmpd 58] | 77 | 0.034 |  | 
CNTATCATQRLANFLVHSSNNFGPILPPTNVGSK(mPEG40KD)TY-NH2 (ends and bridges not checked, also called Cmpd 95) [[K^35(mPEG40KD)]-Cmpd 58] | 143 | 0.122 |  | 
CNTATCATQRLANFLVHSSNNFGK(mPEG40KD)ILPPTNVGSNTY-NH2 (ends and bridges not checked, also called Cmpd 81) [[K^25(mPEG40KD)]-Cmpd 63] | 48 | 0.086 |  | 31
CNTATCATQRLANFLVHSSNNFGPILPPTNK(mPEG40KD)GSNTY-NH2 (ends and bridges not checked, also called Cmpd 92) [[K^32(mPEG40KD)]-Cmpd 58] | 1000 | 24.7 |  | 
CNTATCATQRLANFLVHSSNNFGPILPPK(mPEG40KD)NVGSNTY-NH2 (ends and bridges not checked, also called Cmpd 87) [[K^30(mPEG40KD)]-Cmpd 58] | 685 | 4.25 |  | 599
CNTATCATQRLANFLVHSSNNFGPILPK(mPEG40KD)TNVGSNTY-NH2 (ends and bridges not checked, also called Cmpd 84) [[K^29(mPEG40KD)]-Cmpd 66] | 47 | 0.11 |  | 27
CNTATCATQRLANFLK(mPEG 40 kDa)HSSNNFGPILPPTNVGSNTY-NH2 (ends and bridges not checked, also called Cmpd 89) [[K^17(mPEG40KD)]-Cmpd 58] | 334 | 2.23 |  | 
CNTATCATQRLANFLVHSSNNFGPILK(mPEG40KD)PTNVGSNTY-NH2 (ends and bridges not checked, also called Cmpd 83) [[K^28(mPEG40KD)]-Cmpd 65] | 46 | 0.2 |  | 53
CNTATCATQRLANFLVHSSNNFGPIK(mPEG40KD)PPTNVGSNTY-NH2 (ends and bridges not checked, also called Cmpd 82) [[K^27(mPEG40KD)]-Cmpd 64] | 87 | 0.2 |  | 51
CNTATCATQRLANFLVK(mPEG 40 kDa)SSNNFGPILPPTNVGSNTY-NH2 (ends and bridges not checked, also called Cmpd 90) [[K^18(mPEG40KD)]-Cmpd 58] | 238 | 0.85 |  | 
CNTATCATQRLANFLVHSSNNFGPILPPTK(mPEG40KD)VGSNTY-NH2 (ends and bridges not checked, also called Cmpd 78) [[K^31(mPEG40KD)]-Cmpd 61] | 80 | 0.1 |  | 61
CNTATCATQRLANFLVHSSNNFGPILPPTNVGSNK(mPEG40KD)Y-NH2 (ends and bridges not checked, also called Cmpd 96) [[K^36(mPEG40KD)]-Cmpd 58] | 984 | 3.07 |  | 
CNTATCATQRLANFLVHSSNK(mPEG 40 kDa)FGPILPPTNVGSNTY-NH2 (ends and bridges not checked, also called Cmpd 85) [[K^22(mPEG40KD)]-Cmpd 58] |  | 1.66 |  | 148
KCNTATCATQRLANFLVRSSNNLGPVLPPTK(mPEG40KD)VGSNTY-NH2 (ends and bridges not checked, also called Cmpd 73) [[K^31(mPEG40KD)]-Cmpd 55] |  |  |  | 86
CNTATCATQRLANFLVHSSNNFGPK(mPEG40KD)LPPTNVGSNTY-NH2 (ends and bridges not checked, also called Cmpd 88) [[K^26(mPEG40KD)]-Cmpd 58] | 74 | 0.082 |  | 
CNTATCATQRLANFLVHSSNNFGPK(Y‑shaped‑mPEG40KD)LPPTNVGSNTY-NH2 (ends and bridges not checked, also called Cmpd 79) [[K^26(Y-shaped-mPEG40KD)]-Cmpd 60] | 1130 | 1.74 | 132 | 
CNTATCATQRLANFLVRSSNNLGPVLPPTK(mPEG40KD)VGSNTY-NH2 (ends and bridges not checked, also called Cmpd 74) [[K^31(mPEG40KD)]-Cmpd 56] |  |  |  | 75
CNTATCATQRLANFLVRSSK(mPEG 40 kDa)NLGPVLPPTNVGSNTY-NH2 (ends and bridges not checked, also called Cmpd 70) [[K^21(mPEG40KD)]-Cmpd 52] |  |  |  | 112
KCNTATCATQRLANFLVRSSNNLGPVLPPTNVGSNTY-NH2 (ends and bridges not checked, also called Cmpd 49) [rat amylin, KCNTATCATQRLANFLVRSSNNLGPVLPPTNVGSNTY-NH2] |  |  | 0.1 | 
CNTATCATQRLANFLVRSSNNLGPK(mPEG40KD)LPPTNVGSNTY-NH2 (ends and bridges not checked, also called Cmpd 72) [[K^26(mPEG40KD)]-Cmpd 54] |  |  |  | 54
KCNTATCATQRLANFLVRSSK(mPEG 40 kDa)NLGPVLPPTNVGSNTY-NH2 (ends and bridges not checked, also called Cmpd 69) [[K^21(mPEG40KD)]-Cmpd 51] |  |  |  | 104
